What was measured:
[1] = molecular target: Plk1 PB1 and PB2 domains (UniProt P70032); assay: reciprocal co-IP of tagged proteins, embryo lysates; conditions: reference: wild type CEP97; sites S634,S643,S649,S653
[2] = molecular target: Plk1 (UniProt P70032); assay: as above; conditions: reference: wild type CEP97; sites S634,S643,S649,S653

Substance: CEP97 (from UniProt Q6GPJ8) CEP97 SA (S634A, S643A, S649A, S653A)
- binding against the reference [1]: lost
- binding against the reference [2]: weaker
